From patent CN113372448A

Target: CIB-OVA (cimbuterol coupled to ovalbumin, detection/coating antigen) (UniProt P01012)
Assay: indirect ELISA of soluble scFv (periplasmic extract), steps as in Example 2 (CIB-OVA coated); negative control pCANTAB-5E/HB2151

Sequence of UniProt P01012 (P01012 2-386 limits assumed, form in doubt): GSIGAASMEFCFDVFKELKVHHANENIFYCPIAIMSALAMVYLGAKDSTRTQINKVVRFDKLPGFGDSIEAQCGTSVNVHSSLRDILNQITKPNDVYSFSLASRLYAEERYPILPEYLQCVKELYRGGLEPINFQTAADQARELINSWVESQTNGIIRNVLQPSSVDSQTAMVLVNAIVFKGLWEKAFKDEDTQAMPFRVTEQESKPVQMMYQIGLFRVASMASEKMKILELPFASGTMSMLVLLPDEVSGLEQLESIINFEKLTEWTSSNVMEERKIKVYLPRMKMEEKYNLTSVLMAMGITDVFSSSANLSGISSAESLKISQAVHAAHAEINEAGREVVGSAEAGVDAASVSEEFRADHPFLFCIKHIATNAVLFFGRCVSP

B1: 5-CIB-ScFv (soluble anti-CIB single-chain antibody expressed from CIB-ScFv-pCANTAB5E in E. coli HB2151) (scFv, not shown: small tags and cut ends)
scFv: QVQLQESGADLVRPGTSVKVSCKASGYAFTNYLIEWVKQRPGQGLEWIGVINPGSGGTNYNEKFKGKATLTTDKSSSTAYMQLNSLTSEDSAVYFCKRPPMITTRRTGFDYWGQGTTVTVSSGGGGSGGGGSGGGGSDIELTQSPTTMAASPGEKITITCSATSSLSSNYLHWYQQKPGFSPKLLIYRTSNLASGVPTRFSGSGSGTSYSLTIGTMEAEDVATYYCHQYHRSPFTFGSGTKLEIKR
- 效价 (titre, P/N>2.1) (dilution factor (1:x)): 160
